# Reference: patent publication US5405946A, “Recombinant protein S variants deficient in C4BP binding activity, compositions and therapeutic methods” (The Scripps Research Institute, priority 1992, dated 1995)
# “Also recorded” adds a separate entry of the source.
# T1: C4BP (Homo sapiens, UniProt P20851)
# T1 sequence (P20851 18-252): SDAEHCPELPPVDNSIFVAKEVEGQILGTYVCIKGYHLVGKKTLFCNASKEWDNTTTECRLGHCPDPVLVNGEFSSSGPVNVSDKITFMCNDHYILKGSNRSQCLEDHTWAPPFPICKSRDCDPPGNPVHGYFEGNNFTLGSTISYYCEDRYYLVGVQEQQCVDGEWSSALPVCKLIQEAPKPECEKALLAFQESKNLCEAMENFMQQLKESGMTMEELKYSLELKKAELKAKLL
# T1 sequence (P04003 49-597 partner): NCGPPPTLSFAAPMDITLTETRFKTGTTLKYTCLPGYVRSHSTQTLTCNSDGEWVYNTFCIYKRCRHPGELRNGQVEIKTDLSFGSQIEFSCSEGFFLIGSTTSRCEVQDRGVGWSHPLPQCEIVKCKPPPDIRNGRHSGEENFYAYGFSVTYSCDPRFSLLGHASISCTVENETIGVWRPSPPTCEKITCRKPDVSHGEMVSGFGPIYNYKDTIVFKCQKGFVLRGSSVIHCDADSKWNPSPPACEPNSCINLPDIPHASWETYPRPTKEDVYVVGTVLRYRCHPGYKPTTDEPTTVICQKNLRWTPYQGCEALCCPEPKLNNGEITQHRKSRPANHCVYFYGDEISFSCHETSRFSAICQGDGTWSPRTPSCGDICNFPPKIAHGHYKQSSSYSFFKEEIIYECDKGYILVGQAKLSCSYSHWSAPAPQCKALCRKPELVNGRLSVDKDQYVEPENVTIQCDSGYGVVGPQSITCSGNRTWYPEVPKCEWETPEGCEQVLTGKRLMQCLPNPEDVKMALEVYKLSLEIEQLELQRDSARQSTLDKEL
# T2: human C4b-binding protein (C4BP) (Homo sapiens, UniProt P20851)
# T2 sequence (P20851 18-252): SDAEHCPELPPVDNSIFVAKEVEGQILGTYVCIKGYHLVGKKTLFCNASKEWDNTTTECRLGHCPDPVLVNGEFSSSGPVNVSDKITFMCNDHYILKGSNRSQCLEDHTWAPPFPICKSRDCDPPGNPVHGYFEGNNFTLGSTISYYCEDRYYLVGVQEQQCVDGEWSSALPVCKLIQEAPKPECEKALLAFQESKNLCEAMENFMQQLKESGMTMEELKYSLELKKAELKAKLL
# T2 sequence (P04003 49-597 partner): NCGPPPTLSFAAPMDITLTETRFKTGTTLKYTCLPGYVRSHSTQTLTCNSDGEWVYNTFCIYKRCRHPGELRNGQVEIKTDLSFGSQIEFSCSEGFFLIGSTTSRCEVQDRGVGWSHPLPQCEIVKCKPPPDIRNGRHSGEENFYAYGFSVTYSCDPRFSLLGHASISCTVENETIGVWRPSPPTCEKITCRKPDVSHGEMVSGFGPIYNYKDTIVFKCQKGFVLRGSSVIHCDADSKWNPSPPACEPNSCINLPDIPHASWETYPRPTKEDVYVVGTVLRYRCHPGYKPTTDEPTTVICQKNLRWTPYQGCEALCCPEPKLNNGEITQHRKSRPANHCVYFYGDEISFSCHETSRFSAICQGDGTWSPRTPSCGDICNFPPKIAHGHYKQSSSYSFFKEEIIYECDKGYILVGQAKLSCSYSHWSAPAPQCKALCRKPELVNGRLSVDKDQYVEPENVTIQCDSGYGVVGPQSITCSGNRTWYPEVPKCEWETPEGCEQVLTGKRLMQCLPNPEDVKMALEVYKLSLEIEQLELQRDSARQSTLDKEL
# Experiments:
# C4BP = target: T1, C4BP; details: PS association with C4BP in plasma; read-out: dissociation constant; cited from earlier work
# [1] = target: activated protein C (APC) (Homo sapiens, UniProt P04070); assay: Activated partial thromboplastin time clotting assay, APC cofactor activity in PS- and C4BP-depleted plasma; type: biochemical
# activated protein C (APC), sequence (P04070 212-461 limits assumed): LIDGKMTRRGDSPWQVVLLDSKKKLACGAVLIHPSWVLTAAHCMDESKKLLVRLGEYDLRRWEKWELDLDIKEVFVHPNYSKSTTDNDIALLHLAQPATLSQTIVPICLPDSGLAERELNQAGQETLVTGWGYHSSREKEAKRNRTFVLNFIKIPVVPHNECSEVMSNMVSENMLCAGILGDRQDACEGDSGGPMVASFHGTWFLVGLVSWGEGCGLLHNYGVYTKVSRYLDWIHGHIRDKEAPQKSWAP
# activated protein C (APC), sequence (P04070 43-197 limits assumed): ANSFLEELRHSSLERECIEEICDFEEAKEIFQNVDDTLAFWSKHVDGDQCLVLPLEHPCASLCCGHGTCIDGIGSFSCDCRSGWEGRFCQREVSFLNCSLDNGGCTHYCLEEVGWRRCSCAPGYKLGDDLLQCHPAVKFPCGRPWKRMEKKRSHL
# Method: (§1) An activated partial thromboplastin time clotting assay, using PS- and C4BP-depleted plasma, cephalin-kaolin reagent (Boehringer Mannhein, Indianapolis, Ind.), activated protein C (APC) and increasing amounts of recombinant PS variants was performed as described by Chang et al., Thromb. Haemost., 67:526-532 (1992). Briefly, to 50 ul PS and C4BP-depleted plasma (prepared as described by Koedam et al., J. Clin. Invest., 82:1236-1243 (1988)) was added 50 ul cephalin-kaolin reagent, 25 ul APC (Koedam et al., ibid) at 5 ug/ml and 15 to 45 ul recombinant PS variants (0-4 ug/ml) diluted in Michaelis buffer (28.5 mM sodium acetate, 28.5 mM sodium barbital and 116 mM NaCl, pH 7.35) and maintained for 3 minutes at 37C. Clotting was initiated by addition of 50 ul of 25 mM CaCl2 and the clotting time was measured in an Amelung-Coagulometer KC10.
# (§2) The ability of the variants to serve as a cofactor for APC was tested in a clotting assay. The clotting assay was performed as described in Example 2D. To examine the effects of thrombin on recombinant PS variants APC cofactor activity, one ml of purified recombinant PS variants listed above and prepared in Example 1D (4-40 ug/ml) was maintained with 1/20 vol (50 ul) of thrombin-Sepharose for 1 hour at 37C. in 50 mM Tris-HCl pH 7.5 containing […]. Thrombin-Sepharose was removed by centrifugation. Supernatants containing the thrombin-treated PS were stored at -20C. until used.
# (§3) The PS-dependent prolongation of the clotting time was measured in an activated partial thromboplastin time system using PS and C4BP depleted plasma, APC and cephalin-kaolin reagent as described in Example 2D. Increasing amounts of recombinant PS or the triple variant treated without or with thrombin were added. Clotting was initiated by the addition of CaCl2 and the clotting time was measured. The results are presented as the means of duplicate values.
# thrombin [2] = target: T3, thrombin (Homo sapiens, UniProt P00734); assay: Reduced SDS-PAGE of PS variants with thrombin treatment; type: biochemical; details: reduced SDS gels
# T3 construct: maintained with 1/20 vol (50 ul) of thrombin-Sepharose for 1 hour at 37C
# Method: The purity and integrity of the recombinant PS variants was established by SDS-PAGE on 12.5% gradient gels according to Laemmli, Nature, 227:680-685 (1970) using the Phast system (Pharmacia Biotechnology, Sweden). After electrophoresis, the proteins were stained with silver nitrate or transferred onto Immobilon membranes for subsequent detection by Western blot analysis using rabbit anti-PS IgG conjugated to peroxidase (3 ug/ml).
# For the thrombin-sensitive PS variant proteins, on reduced SDS gels, purified recombinant PS and the single and double variants all migrated as a doublet. […] The upper band of the doublet for recombinant PS and the single and double variants all could be converted into the lower band by thrombin treatment.
# [3] = target: T2, human C4b-binding protein (C4BP); assay: ELISA of complex formation between recombinant PS variant proteins and C4BP; details: C4BP 1 ug/ml, 18 hours room temperature
# Method: The complex formation between the recombinant PS variant proteins and C4BP was measured with a sensitive ELISA using C4BP and a peroxidase conjugated anti-PS antibody as described by Chang et al., Thromb. Haemost., 67:526-532 (1992). Briefly, IgG at a concentration of 10 ug/ml from monoclonal antibody 8C11, which is directed against the alpha chain of C4BP (Hessing et al., J. Immunol., 144:204-208 (1990)), was coated in 50 mM NaHCO3 at pH 9.6 overnight at 4C. onto polyvinyl microtiter plates (Costar, Cambridge, Mass.). After washing to remove the unbound IgGs, the wells were blocked with 1% (w/v) BSA in 50 mM Tris-HCl at pH 7.5 containing 150 mM NaCl and 5 mM CaCl2 for 1 hour at room temperature. C4BP, prepared as described by Hessing et al., supra, was allowed to bind for 2 hours with a final concentration of 1 ug/ml. Increasing amounts of recombinant PS proteins (E424K, Q427E, K429E, […] and K432E) and wild-type recombinant PS prepared in Example 1 were then added in concentrations ranging from 0-150 ng/ml and maintained for 18 hours at room temperature. Bound proteins were allowed to bind to rabbit anti-human PS IgG conjugated to peroxidase (Dakopatts, Glostrup, Denmark) at a concentration of 0.3 ug/ml for 2 hours at room temperature. After washing the wells to remove the unbound proteins, 100 ul of 0.1M sodium phosphate/0.2M sodium citrate at pH 5.0 containing 0.04% 1,2-phenylenediamine dihydrochloride and 0.015% hydrogen peroxide was added. The hydrolysis of phenylenediamine was stopped by adding 50 ul 2N sulfuric acid. The absorbance was measured at 490 nm using a Vmax plate reader (Molecular Devices Corp., Menlo Park, Calif.). The data represented the mean of duplicate determinations.
# The binding of the of the thrombin domain recombinant PS variants to C4BP was determined. The complex formation between the recombinant proteins and C4BP was measured with a sensitive ELISA using anti-C4BP monoclonal antibody 8C11 lgG, purified C4BP and peroxidase conjugated anti-PS antibody as described in Example 2A.
# Anti-C4BP monoclonal antibody 8C11 IgG was coated onto microtiter wells to catch C4BP (1 ug/ml). Increasing amounts (0-100 ng/ml) of recombinant PS or variants (R49L, R60L, R70I, R49L/R60L, R60L/R70I, R49L/R70I and R49L/R60L/R70I) were added. Binding to C4BP was for 18 hours at room temperature. Bound PS variants were detected with anti-PS IgG conjugated to peroxidase (0.3 ug/ml). The results are the mean of duplicate values in two different experiments.
# thrombin [4] = target: T3, thrombin; assay: APC cofactor clotting assay after thrombin-Sepharose treatment of PS variants; type: biochemical
# Method: as §1, §2, §3
# [5] = tested on: anti-PS monoclonal antibody LJ-56; assay: Sandwich assay of LJ-56 reactivity to recombinant PS variant proteins; type: binding; details: LJ-56 0-10 ug/ml
# Method: Reactivity of LJ-56 to the recombinant PS variant proteins gave essentially the same results when a sandwich detecting assay was performed. In the sandwich assay, a fixed amount of recombinant PS variants produced in Example 1B1) (50 ng for E424K and 100 ng for wild type, Q427E and K429E) were added to wells previously coated with rabbit anti-PS IgG at 10 ug/ml in coating buffer and treated to block nonspecific binding sites as described above. Following a maintenance period for 18 hours at room temperature, the wells were washed with TBS and 100 ul of serial dilutions of anti-PS monoclonal antibody LJ-56 (0-10 ug/ml) was added and maintained for 2 hours at room temperature. Detection of the immunoreactant products was accomplished with rabbit anti-mouse IgG conjugated to peroxidase (1:1000). The hydrolysis of […] was measure at 490 nm using a Vmax plate reader as described in Example 2A.
molecule,measurement,setting,value
"PS: vitamin K-dependent protein of 75,000 molecular weight with 635 amino acid residues",Kd,C4BP,1 to 5 nM
"R49L/R60L/R70I variant: recombinant protein S triple variant, arginines 49, 60 and 70 replaced by leucine or isoleucine (protein) ANSLLEETKQGNLERECIEELCNKEEAREVFENDPETDYFYPKYLVCLLSFQTGLFTAALQSTNAYPDLISCVNAIPDQCSPLPCNEDGYMSCKDGKASFTCTCKPGWQGEKCEFDINECKDPSNINGGCSQICDNTPGSYHCSCKNGFVMLSNKKDCKDVDECSLKPSICGTAVCKNIPGDFECECPEGYRYNLKSKSCEDIDECSENMCAQLCVNYPGGYTCYCDGKKGFKLAQDQKSCEVVSVCLPLNLDTKYELLYLAEQFAGVVLYLKFRLPEISRFSAEFDFRTYDSEGVILYAESIDHSAWLLIALRGGKIEVQLKNEHTSKITTGGDVINNGLWNMVSVEELEHSISIKIAKEAVMDINKPGPLFKPENGLLETKVYFAGFPRKVESELIKPINPRLDGCIRSWNLMKQGASGIKEIIQEKQNKHCLVTVEKGSYYPGSGIAQFHIDYNNVSSAEGWHVNVTLNIRPSTGTGVMLALVSGNNTVPFAVSLVDSTSEKSQDILLSVENTVIYRIQALSLCSDQQSHLEFRVNRNNLELSTPLKIETISHEDLQRQLAVLDKAMKAKVATYLGGLPDVPFSATPVNAFYNGCMEVNINGVQLDLDEAISKHNDIRAHSCPSVWKKTKNS",Clotting Time,"[1]; concentration 1.19 ug/ml, without protein S 72 ± 2 seconds",84 s
same,APC cofactor activity,[1]; not treated with thrombin,higher APC cofactor activity (as defined by prolongation of the clotting time) than recombinant PS; also recorded: retained full APC cofactor activity
same,conversion of upper band into lower band by thrombin,thrombin [2],"not converted into a lower band, indicating that this triple variant was resistant to thrombin"
same,binding to C4BP,"[3]; thrombin domain variants, 0-100 ng/ml, in the presence of calcium",unaltered affinity for binding to C4BP
same,Clotting Time After Treatment,"thrombin [4]; after thrombin treatment, concentration 1.19 ug/ml, without protein S 72 ± 2 seconds",85 s
same,APC cofactor activity after treatment with thrombin,thrombin [4]; thrombin-Sepharose 1 hour at 37C,retained its APC cofactor activity; also recorded: remained unchanged; also recorded: completely resistant to inactivation by thrombin
K429E variant: recombinant human protein S with glutamic acid in place of lysine at position 429 (protein) ANSLLEETKQGNLERECIEELCNKEEAREVFENDPETDYFYPKYLVCLRSFQTGLFTAARQSTNAYPDLRSCVNAIPDQCSPLPCNEDGYMSCKDGKASFTCTCKPGWQGEKCEFDINECKDPSNINGGCSQICDNTPGSYHCSCKNGFVMLSNKKDCKDVDECSLKPSICGTAVCKNIPGDFECECPEGYRYNLKSKSCEDIDECSENMCAQLCVNYPGGYTCYCDGKKGFKLAQDQKSCEVVSVCLPLNLDTKYELLYLAEQFAGVVLYLKFRLPEISRFSAEFDFRTYDSEGVILYAESIDHSAWLLIALRGGKIEVQLKNEHTSKITTGGDVINNGLWNMVSVEELEHSISIKIAKEAVMDINKPGPLFKPENGLLETKVYFAGFPRKVESELIKPINPRLDGCIRSWNLMKQGASGIKEIIQEEQNKHCLVTVEKGSYYPGSGIAQFHIDYNNVSSAEGWHVNVTLNIRPSTGTGVMLALVSGNNTVPFAVSLVDSTSEKSQDILLSVENTVIYRIQALSLCSDQQSHLEFRVNRNNLELSTPLKIETISHEDLQRQLAVLDKAMKAKVATYLGGLPDVPFSATPVNAFYNGCMEVNINGVQLDLDEAISKHNDIRAHSCPSVWKKTKNS,Clotting Time,"[1]; final conc. 1.8 ug/ml, basal clotting 80",88 s
same,anticoagulant activity,[1]; in comparison with the basal clotting time of 80 seconds,anticoagulant activity increased linearly with increasing volumes of variant PS
same,clotting time at maximal inhibition of clotting,[1]; increasing amounts of variant,approximately 95 seconds
same,binding to C4BP,"[3]; first disulfide loop variants, 0-150 ng/ml, calcium",failed to bind to C4BP at concentrations up to 50 ng/ml
same,recognition by LJ-56,[5],not recognized
